Test results as given in patent publication US20200277377A1 (WUXI BIOLOGICS SHANGHAI, published 2020).

B1: W3162_1.154.8-z35-uAb.IgG1K (antibody, V domains shown)
VH: QVQLVQSGAEVKKPGSSVKVSCKASGYTFTNYFMNWVRQAPGQGLEWMGRVDPEQGRADYAEKFKKRVTITADKSTSTAYMELSSLRSEDTAVYYCARRAMDNYGFAYWGQGTLVTVSS
VL: EIVLTQSPDFQSVTPKEKVTITCSANSALSYMYWYQQKPDQSPKLWVHGTSNLASGVPSRFSGSGSGTDFTLTINSLEAEDAATYYCHHWSNTQWTFGGGTKVEIK
notes: Humanized; label says IgG1K
B2: W3162-1.146.19-z12-uAb.IgG1K (antibody, V domains shown)
VH: QVQLQESGPGLVKPSETLSLTCSVTYHTITSGYDWTWIRKPPGKGMEWIGYISYSGNTNYNPSLKSRVTISRDTSKNQFFLKLSSVTAADTAVYYCASMMVPHYYVMDAWGQGTLVTVSS
VL: DIVMTQTPLSLSVTPGQPASISCRSSQSLLNSDGNTYLYWYLQKPGQSPQLLIYLVSKLGSGVPNRFSGSGSGTDFTLKISRVEAEDVGVYYCVQGTHDPWTFGGGTKVEIK
notes: Humanized; label says IgG1K

How the values were obtained:
hCTLA4_ECD.His (N113 Q) = biological target: T1, hCTLA4_ECD.His (N113 Q) (human, UniProt P16410 36-161); assay: capture ELISA: W3162-1.154.8-z35 captured on anti-human Fc, hCTLA4-His mutein supernatant titrated (ng/ml), HRP-anti-His [C]
T1 construct: extracellular domain; Glycosylation-site mutein, expressed in HEK293F cells; also called CTLA-4 with N113Q
T1 sequence (looked up): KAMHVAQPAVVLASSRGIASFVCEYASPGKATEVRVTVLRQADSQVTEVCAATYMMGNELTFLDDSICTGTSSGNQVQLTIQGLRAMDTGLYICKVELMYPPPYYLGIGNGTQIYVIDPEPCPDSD

hCTLA4_ECD.His (N145Q) = biological target: T2, hCTLA4_ECD.His (N145Q) (human, UniProt P16410 36-161); assay: as above
T2 construct: extracellular domain; Glycosylation-site mutein, expressed in HEK293F cells; also called CTLA-4 N145Q
T2 sequence (looked up): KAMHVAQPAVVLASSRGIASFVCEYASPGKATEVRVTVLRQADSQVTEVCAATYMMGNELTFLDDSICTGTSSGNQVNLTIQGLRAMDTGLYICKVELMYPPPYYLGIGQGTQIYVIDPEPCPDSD

Murine CTLA-4.ECD-6×His = biological target: T3, Murine CTLA-4.ECD-6×His (mouse, UniProt P09793 36-161); assay: ELISA, coated mouse CTLA-4.ECD-6×His
T3 construct: extracellular domain; Bought; also called mouse CTLA-4.ECD-6×His; mouse CTLA-4 ECD
Protocol: ELISA was used to test binding of anti-human CTLA-4 antibodies to human, murine and cynomolgus monkey CTLA-4 protein. A 96-well plate was coated with human CTLA-4.ECD-6×His (1.0 μg/mL), cynomoguls monkey CTLA-4.ECD-6×His (0.5 μg/mL) or mouse CTLA-4.ECD-6×His (0.5 μg/mL) at 4° C. for 16-20 hours. After 1 hour blocking with 2% BSA in DBPS, testing antibodies, as well as positive and negative control antibodies were added to the plates and incubated at room temperature for 1 hour. The binding of the antibodies to the plates were detected by HRP-conjugated goat anti-human IgG antibody (1:5000 dilution) with 1 hour incubation. The color was developed by dispensing 100 μL of TMB substrate for 8 mins, and then stopped by 100 μL of 2N HCl.

Binder | EC50 (read off the curve) (hCTLA4_ECD.His (N113 Q)) [ng/mL] | EC50 (read off the curve) (hCTLA4_ECD.His (N145Q)) [ng/mL] | EC50 (Murine CTLA-4.ECD-6×His) [nM]
B1 | ~3 | ~3 | 
B2 |  |  | 0.19
